Measured values taken from US7067274B2, “Compositions and methods for the screening pro-apoptotic compounds” (Genentech, Inc., priority 2003, dated 2006).
Positions count from the first letter of the chain named. Entries after “also recorded” stand apart in the source; their conditions may differ. Where two headings read alike, the source gives them in different places.

T1: ΔCARD human caspase 9 (Homo sapiens, UniProt P55211, D305A/E304A/E306A)
T1 construct: made in house
T1 sequence (P55211 139-315 E304A/D305A/E306A limits assumed): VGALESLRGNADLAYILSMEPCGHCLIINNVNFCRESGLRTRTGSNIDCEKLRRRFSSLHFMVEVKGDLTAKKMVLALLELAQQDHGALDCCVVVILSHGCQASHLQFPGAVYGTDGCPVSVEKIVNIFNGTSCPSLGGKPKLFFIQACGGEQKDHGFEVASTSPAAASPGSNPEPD
T1 sequence (P55211 316-416 limits assumed): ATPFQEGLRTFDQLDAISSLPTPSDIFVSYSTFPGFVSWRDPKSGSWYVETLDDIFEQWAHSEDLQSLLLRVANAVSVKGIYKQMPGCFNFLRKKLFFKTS

T2: caspase-9 (Homo sapiens, UniProt P55211)
T2 sequence (P55211 1-416): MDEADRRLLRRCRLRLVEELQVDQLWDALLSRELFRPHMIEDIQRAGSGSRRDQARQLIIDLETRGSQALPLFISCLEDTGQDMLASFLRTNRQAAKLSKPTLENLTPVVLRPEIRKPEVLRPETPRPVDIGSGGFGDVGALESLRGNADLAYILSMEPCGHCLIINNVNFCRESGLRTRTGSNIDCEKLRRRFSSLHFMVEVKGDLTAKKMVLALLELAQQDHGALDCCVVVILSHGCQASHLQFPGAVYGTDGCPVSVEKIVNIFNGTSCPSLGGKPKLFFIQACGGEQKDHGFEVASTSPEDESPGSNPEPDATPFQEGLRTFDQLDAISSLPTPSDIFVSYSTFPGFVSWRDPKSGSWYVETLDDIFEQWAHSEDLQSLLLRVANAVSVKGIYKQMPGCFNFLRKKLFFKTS

B1: ML-IAP: full-length melanoma inhibitor of apoptosis protein with N-terminal His6-tag (protein)
chain: MGPKDSAKCLHRGPQPSHWAAGDGPTQERCGPRSLGSPVLGLDTCRAWDHVDGQILGQLRPLTEEEEEEGAGATLSRGPAFPGMGSEELRLASFYDWPLTAEVPPELLAAAGFFHTGHQDKVRCFFCYGGLQSWKRGDDPWTEHAKWFPSCQFLLRSKGRDFVHSVQETHSQLLGSWDPWEEPEDAAPVAPSVPASGYPELPTPRREVQSESAQEPGGVSPAEAQRAWWVLEPPGARDVEAQLRRLQEERTCKVCLDRAVSIVFVPCGHLVCAECAPGLQLCPICRAPVRSRVRTFLS
modifications: left off: small tags and cut ends
B2: MLXBIR3: ML-IAP-BIR in which amino acids 160–179 were replaced with amino acids 336–348 of XIAP-BIR3 (protein)
chain: TEEEEEEGAGATLSRGPAFPGMGSEELRLASFYDWPLTAEVPPELLAAAGFFHTGHQDKVRCFFCYGGLQSWKRGDDPWTEHAKWFPSCQFLLRSKGQEYINNIHLTHSL
modifications: left off: small tags and cut ends
B3: MLXBIR3SG: MLXBIR3 chimera with Ser 150 of ML-IAP-BIR mutated to Gly (SEQ ID NO:2) (protein)
chain: MGSSHHHHHHSSGLVPRGSHMLETEEEEEEGAGATLSRGPAFPGMGSEELRLASFYDWPLTAEVPPELLAAAGFFHTGHQDKVRCFFCYGGLQSWKRGDDPWTEHAKWFPGCQFLLRSKGQEYINNIHLTHSL
modifications: Homo sapien
B4: XIAP-BIR3: third BIR domain of XIAP (residues 252–348) (protein)
chain: NSTNLPRNPSMADYEARIFTFGTWIYSVNKEQLARAGFYALGEGDKVKCFHCGGGLTDWKPSEDPWEQHAKWYPGCKYLLEQKGQEYINNIHLTHSL
modifications: left off: small tags and cut ends
B5: MLBIR-Q: C-terminally truncated version of ML-IAP-BIR with the same number of amino acids as MLXBIR3 and MLXBIR3SG (protein)
chain: B2 chain with Q98R, E99D, Y100F, I101V, N102H, N103S, I104V, H105Q, L106E, L110Q
modifications: left off: small tags and cut ends

What was measured:
[1] = molecular target: T1, ΔCARD human caspase 9; test: Determination of caspase-9 inhibitory constants (Ac-LEHD-AFC hydrolysis); format: biochemical; conditions: for Ki: read-out: Caspase-9 inhibition Ki(app)
Experimental: ΔCARD (caspase recruitment domain) human caspase 9 (lacking the first 138 residues) with Ala substitutions at residues 304 to 306 was produced as described previously (Boatright et al., (2003) Mol Cell 11: 529–541). The third BIR of […] (residues 252–348) was also prepared as described previously (Sun et al., (2000) J Biol Chem 275(43): 33777–81).
Determination of Caspase-9 Inhibitory Constants: Recombinant ΔCARD caspase 9 (300 nM final concentration in the assay) was preactivated in salt-free caspase buffer (20 mM PIPES, 10 mM EDTA, 0.1% CHAPS and 10% (w/v) sucrose, pH 7.2) for 15 min at 37° C. Following this, a range of inhibitor concentrations were preincubated with the enzyme for 20 min at 37° C. The assay was started by the addition of Ac-LEHD-AFC (100 μM final concentration) and measured kinetically for 30 min using an fmax Fluorescence Plate Reader (Molecular Devices) at an excitation wavelength of 405 nm and an emission wavelength of 510 nm. Reaction mixtures were thermostatically controlled at 37° C. The individual Ki values for the inhibitors [I] were determined from the uninhibited substrate hydrolysis rate (vo) and the inhibited rates (vi), so that a plot of (vo/vi)−1 against [I] gives Ki(app), the equilibrium inhibition constant in the presence of substrate (Salvesen and Nagase, (1989) Proteolytic enzymes: A practical approach. R. J. Beynon and J. S. Bond. Oxford, IRL Press: 83–104).

[2] = molecular target: Hid-FAM (5-carboxyflourescein-conjugated AVPFAK(5-FAM)K); test: Fluorescence polarization affinity measurement with Hid-FAM probe; format: binding; conditions: 5 nM Hid-FAM, apparent Kd from EC50
Experimental: Polarization experiments were performed on an Analyst™ HT 96-384 (Molecular Devices Corp.). […] The reactions were read after an incubation time of 10 minutes at room temperature with standard cut-off filters for the fluorescein fluorophore (λex=485 nm; λem=530 nm) in 96-well black HE96 plates (Molecular Devices Corp.). Fluorescence polarization values were plotted as a function of the protein concentration, and the EC50 values were obtained by fitting the data to a 4-parameter equation using Kaleidagraph™ software (Synergy software, Reading, Pa.). The apparent Kd values were determined from the EC50 values.
(§1) The binding affinity of the Hid-FAM probe for each of the BIR domains was determined directly using a fluorescence polarization-based assay and the result is shown graphically in FIG. 8.

[3] = test system: MCF7 cells; test: Inhibition of doxorubicin-induced apoptosis in transfected MCF7 cells; format: cell-based; conditions: MCF7 cells transiently transfected, doxorubicin 0.5 μg/ml
Experimental: MCF7 cells were transiently transfected with the reporter plasmid pCMV-βgal and either vector control alone or BIR domain constructs. Following transfection, cells were exposed to doxorubicin (adriamycin; 0.5 μg/ml), stained with X-gal and apoptosis assessed by counting live and dead transfected cells. Percentage apoptosis represents the mean value of at least four sample points and is representative of three independent experiments.

[4] = molecular target: wild-type mature Smac protein; test: Fluorescence polarization competition assay, mature Smac protein; format: binding, human; conditions: competition with 5 nM Hid-FAM probe, Ki from IC50
Experimental: A PCR product containing amino acids 56–239 of Smac/DIABLO (accession number SMAC_HUMAN) was cloned into the XbaI/XhoI sites of a pet21b+ (Novagen) generating a C-terminal His6 fusion. Pet21bSmac was transformed into Escherichia coli strain BL21(DE3) competent cells (Stratagene). Overnight cultures were diluted 1:100 and grown at 37° C. in LB media with 50 μg/ml carbenicillin to an A600 of 0.8 with vigorous shaking. Isopropyl-β-D-1-thiogalactopyranoside (IPTG) was added to a final concentration of 1 mM and cultures were grown overnight at 16° C. Cell pellets were resuspended in Buffer A (50 mM Tris (pH 8.0), 300 mM NaCl, 0.5 mM PMSF, 2 mM benzamidine, 5 mM β-mercaptoethanol) with 5 mM imidazole and placed on ice for 30 minutes. Cells were homogenized, microfluidized, and centrifuged at 15,000 rpm for 45 minutes. Supernatant was loaded onto a Ni-NTA agarose column (Qiagen™), washed with 10 column volumes Buffer A with 10 mM imidazole, and eluted with 10 column volumes Buffer A with 300 mM imidazole. Fractions containing Smac protein were pooled, concentrated and loaded on a Superdex™ 200 sizing column. Protein eluted over one column volume into 50 mM Tris (pH 7.6), 300 mM NaCl, 0.5 mM PMSF, 2 mM benzamidine and 5 mM DTT. Fractions containing Smac protein were pooled and dialyzed against 3 changes of buffer containing 50 mM Tris (pH 7.6), 0.5 mM PMSF, 2 mM benzamidine and 5 mM DTT. The dialyzed sample was loaded onto a Q-Sepharose™ FF column (Pharmacia) and eluted over a 10 column volume gradient from zero to 1 M NaCl in buffer 50 mM Tris (pH 7.6), 0.5 mM PMSF, 2 mM benzamidine and 5 mM DTT. The cDNA encoding full-length ML-IAP plus a N-terminal His6-tag was cloned into the pET15b(+) expression vector (Novagen). ML-IAP was expressed in E. coli strain BL21(DE3)pLysS. […] The protein concentration of purified proteins was determined from the absorbance at 280 nm based on the molar absorption coefficients calculated from the Edelhoch relationship (Edelhoch, (1967) Biochemistry 6: 1948–1954).
Samples were read after a 10-minute incubation. Fluorescence polarization values were plotted as a function of the antagonist concentration, and the IC50 values were obtained by fitting the data to a 4-parameter equation using Kaleidagraph™ software (Synergy software; Reading, Pa.). Inhibition constants (Ki) for the antagonists were determined from the IC50 values (Keating et al., (2000) Putting the pieces together: contribution of fluorescence polarization assays to small-molecule lead optimization. Proceedings of SPIE: In-Vitro Diagnostic Instrumentation.).
as §1

[5] = molecular target: T2, caspase-9; conditions: literature; read-out: inhibition constant, caspase-9; cited from earlier work
[6] = 300 nM ΔCARD caspase 9, 100 μM Ac-LEHD-AFC, 37° C.

Molecule | Ki [1] | fold lower potency for inhibition of caspase-9 activity relative to XIAP ([1]; relative to XIAP) | Kd [2] | inhibition of doxorubicin-induced apoptosis [3] | Ki [1, 6] | fold less potent at inhibiting caspase-9 than XIAP-BIR3 ([1]; relative to XIAP-BIR3) | fold better at inhibiting caspase-9 than MLBIR-Q ([1]; relative to wild-type ML-IAP-BIR construct of the same length) | Ki [4] | Ki [5]
B1 | 3000 to 5000 nM | ~300 fold |  |  |  |  |  |  | 
B2 |  |  | 21 nM | confers resistance | 962 nM | ~70 fold | ~5 fold |  | 
B3 |  |  |  | significantly more efficient; also recorded: confers resistance | < 1 nM |  |  | 59 nM | 
B4 |  |  | 105 nM | confers resistance | 13 nM |  |  | 320 nM | 10 to 20 nM
B5 |  |  | 20 nM |  | 4600 nM |  |  | 54 nM | 
